# Source: patent US7125847 (RESEARCH FOUNDATION OF STATE UNIVERSITY OF NEW YORK AT …, dated 2006)
# Where no end group is shown, it is not given here.
# Target: stretch-activated channels (cationic SACs) of ventricular myocytes from rabbits with aortic … (rabbit)
# Assay: cell-based or functional assay
binder,measurement,value
"GCLEFWWKCNPNDDKCCRPKLKCSKLFKLCNFSSG-NH2 (disulfide (positions not given here); not fully specified (bridges); also: 3 disulfides (ICK motif), pairing not given here) [GsMTx-4 purified from Grammostola spatulata venom]",myocyte cell volume reduction relative to that produced by 1.5 T saline,~40%
